Source: patent publication US5405946A, “Recombinant protein S variants deficient in C4BP binding activity, compositions and therapeutic methods” (The Scripps Research Institute, priority 1992, dated 1995)
Where a chain is given by its changes, count along the chain named. In names and notes the source's numbering stands. Values belong to the molecule of their own block, whether it stands above or below them.

Experiments:
[1] = biological target: activated protein C (APC) (Homo sapiens, UniProt P04070); test: Activated partial thromboplastin time clotting assay, APC cofactor activity in PS- and C4BP-depleted plasma; type: biochemical
Protocol: (§1) An activated partial thromboplastin time clotting assay, using PS- and C4BP-depleted plasma, cephalin-kaolin reagent (Boehringer Mannhein, Indianapolis, Ind.), activated protein C (APC) and increasing amounts of recombinant PS variants was performed as described by Chang et al., Thromb. Haemost., 67:526-532 (1992). Briefly, to 50 ul PS and C4BP-depleted plasma (prepared as described by Koedam et al., J. Clin. Invest., 82:1236-1243 (1988)) was added 50 ul cephalin-kaolin reagent, 25 ul APC (Koedam et al., ibid) at 5 ug/ml and 15 to 45 ul recombinant PS variants (0-4 ug/ml) diluted in Michaelis buffer (28.5 mM sodium acetate, 28.5 mM sodium barbital and 116 mM NaCl, pH 7.35) and maintained for 3 minutes at 37C. Clotting was initiated by addition of 50 ul of 25 mM CaCl2 and the clotting time was measured in an Amelung-Coagulometer KC10.
(§2) The ability of the variants to serve as a cofactor for APC was tested in a clotting assay. The clotting assay was performed as described in Example 2D. To examine the effects of thrombin on recombinant PS variants APC cofactor activity, one ml of purified recombinant PS variants listed above and prepared in Example 1D (4-40 ug/ml) was maintained with 1/20 vol (50 ul) of thrombin-Sepharose for 1 hour at 37C. in 50 mM Tris-HCl pH 7.5 containing […]. Thrombin-Sepharose was removed by centrifugation. Supernatants containing the thrombin-treated PS were stored at -20C. until used.
(§3) The PS-dependent prolongation of the clotting time was measured in an activated partial thromboplastin time system using PS and C4BP depleted plasma, APC and cephalin-kaolin reagent as described in Example 2D. Increasing amounts of recombinant PS or the triple variant treated without or with thrombin were added. Clotting was initiated by the addition of CaCl2 and the clotting time was measured. The results are presented as the means of duplicate values.

thrombin = biological target: T1, thrombin (Homo sapiens, UniProt P00734); test: APC cofactor clotting assay after thrombin-Sepharose treatment of PS variants; type: biochemical; conditions: for Clotting Time After Treatment: after thrombin treatment, without protein S 72 ± 2 seconds
T1 construct: maintained with 1/20 vol (50 ul) of thrombin-Sepharose for 1 hour at 37C
Protocol: as §1, §2, §3

[2] = biological target: T2, human C4b-binding protein (C4BP) (Homo sapiens, UniProt P20851); test: ELISA of complex formation between recombinant PS variant proteins and C4BP; conditions: first disulfide loop variants, 0-150 ng/ml, C4BP 1 ug/ml, 18 hours room temperature, calcium
T2 sequence (P20851 18-252): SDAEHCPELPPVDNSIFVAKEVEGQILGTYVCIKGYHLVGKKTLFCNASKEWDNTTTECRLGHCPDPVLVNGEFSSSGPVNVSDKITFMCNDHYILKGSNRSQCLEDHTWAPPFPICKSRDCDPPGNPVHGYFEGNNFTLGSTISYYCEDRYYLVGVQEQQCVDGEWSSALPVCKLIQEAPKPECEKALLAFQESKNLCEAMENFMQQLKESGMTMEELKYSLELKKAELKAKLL
T2 sequence (P04003 49-597 partner): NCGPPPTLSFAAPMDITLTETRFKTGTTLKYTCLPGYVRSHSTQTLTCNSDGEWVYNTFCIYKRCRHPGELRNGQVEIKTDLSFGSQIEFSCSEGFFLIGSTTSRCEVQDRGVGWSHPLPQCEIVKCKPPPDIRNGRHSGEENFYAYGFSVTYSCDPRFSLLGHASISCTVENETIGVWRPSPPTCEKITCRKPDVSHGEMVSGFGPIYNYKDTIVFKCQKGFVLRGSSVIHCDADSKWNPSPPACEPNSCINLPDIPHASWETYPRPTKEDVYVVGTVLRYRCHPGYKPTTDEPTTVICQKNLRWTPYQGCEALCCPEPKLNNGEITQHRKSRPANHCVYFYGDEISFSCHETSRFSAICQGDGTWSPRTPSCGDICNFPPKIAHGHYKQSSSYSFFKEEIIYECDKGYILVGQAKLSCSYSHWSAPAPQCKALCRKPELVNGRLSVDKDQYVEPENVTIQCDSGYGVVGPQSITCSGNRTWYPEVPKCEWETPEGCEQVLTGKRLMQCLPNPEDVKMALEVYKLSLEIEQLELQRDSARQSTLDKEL
Protocol: The complex formation between the recombinant PS variant proteins and C4BP was measured with a sensitive ELISA using C4BP and a peroxidase conjugated anti-PS antibody as described by Chang et al., Thromb. Haemost., 67:526-532 (1992). Briefly, IgG at a concentration of 10 ug/ml from monoclonal antibody 8C11, which is directed against the alpha chain of C4BP (Hessing et al., J. Immunol., 144:204-208 (1990)), was coated in 50 mM NaHCO3 at pH 9.6 overnight at 4C. onto polyvinyl microtiter plates (Costar, Cambridge, Mass.). After washing to remove the unbound IgGs, the wells were blocked with 1% (w/v) BSA in 50 mM Tris-HCl at pH 7.5 containing 150 mM NaCl and 5 mM CaCl2 for 1 hour at room temperature. C4BP, prepared as described by Hessing et al., supra, was allowed to bind for 2 hours with a final concentration of 1 ug/ml. Increasing amounts of recombinant PS proteins (E424K, Q427E, K429E, […] and K432E) and wild-type recombinant PS prepared in Example 1 were then added in concentrations ranging from 0-150 ng/ml and maintained for 18 hours at room temperature. Bound proteins were allowed to bind to rabbit anti-human PS IgG conjugated to peroxidase (Dakopatts, Glostrup, Denmark) at a concentration of 0.3 ug/ml for 2 hours at room temperature. After washing the wells to remove the unbound proteins, 100 ul of 0.1M sodium phosphate/0.2M sodium citrate at pH 5.0 containing 0.04% 1,2-phenylenediamine dihydrochloride and 0.015% hydrogen peroxide was added. The hydrolysis of phenylenediamine was stopped by adding 50 ul 2N sulfuric acid. The absorbance was measured at 490 nm using a Vmax plate reader (Molecular Devices Corp., Menlo Park, Calif.). The data represented the mean of duplicate determinations.
The binding of the of the thrombin domain recombinant PS variants to C4BP was determined. The complex formation between the recombinant proteins and C4BP was measured with a sensitive ELISA using anti-C4BP monoclonal antibody 8C11 lgG, purified C4BP and peroxidase conjugated anti-PS antibody as described in Example 2A.
Anti-C4BP monoclonal antibody 8C11 IgG was coated onto microtiter wells to catch C4BP (1 ug/ml). Increasing amounts (0-100 ng/ml) of recombinant PS or variants (R49L, R60L, R70I, R49L/R60L, R60L/R70I, R49L/R70I and R49L/R60L/R70I) were added. Binding to C4BP was for 18 hours at room temperature. Bound PS variants were detected with anti-PS IgG conjugated to peroxidase (0.3 ug/ml). The results are the mean of duplicate values in two different experiments.

[3] = concentration 2.38 ug/ml, without protein S 72 ± 2 seconds
[4] = final conc. 0.6 ug/ml, basal clotting 80
[5] = concentration 1.12 ug/ml, without protein S 72 ± 2 seconds
[6] = concentration 0.60 ug/ml, without protein S 72 ± 2 seconds

Sequence of activated protein C (APC) (P04070 212-461 limits assumed): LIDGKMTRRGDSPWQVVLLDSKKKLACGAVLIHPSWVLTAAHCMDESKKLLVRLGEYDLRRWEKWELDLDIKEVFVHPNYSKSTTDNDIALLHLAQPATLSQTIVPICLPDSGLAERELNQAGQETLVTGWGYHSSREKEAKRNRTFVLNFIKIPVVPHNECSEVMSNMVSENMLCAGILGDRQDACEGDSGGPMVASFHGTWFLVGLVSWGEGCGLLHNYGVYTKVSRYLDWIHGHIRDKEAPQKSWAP
Sequence of activated protein C (APC) (P04070 43-197 limits assumed): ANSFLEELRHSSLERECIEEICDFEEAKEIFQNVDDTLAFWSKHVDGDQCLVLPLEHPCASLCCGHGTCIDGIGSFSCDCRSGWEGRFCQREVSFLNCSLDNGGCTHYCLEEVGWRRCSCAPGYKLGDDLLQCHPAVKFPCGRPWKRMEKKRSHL

Clotting Time [1, 3]: 91 s
Clotting Time ([1]; final conc. 2.4 ug/ml, basal clotting 80): 116 s
Clotting Time After Treatment (thrombin; concentration 2.38 ug/ml): 70 s
APC cofactor activity after treatment with thrombin (thrombin; thrombin-Sepharose 1 hour at 37C): significantly decreased
Molecule: rPS wild-type: recombinant wild-type full length human protein S expressed in C127I cells [reference compound]

Clotting Time [1, 4]: 97 s
B1: E424K variant: recombinant human protein S with Glu-424 replaced by Lys (protein)
chain: ANSLLEETKQGNLERECIEELCNKEEAREVFENDPETDYFYPKYLVCLRSFQTGLFTAARQSTNAYPDLRSCVNAIPDQCSPLPCNEDGYMSCKDGKASFTCTCKPGWQGEKCEFDINECKDPSNINGGCSQICDNTPGSYHCSCKNGFVMLSNKKDCKDVDECSLKPSICGTAVCKNIPGDFECECPEGYRYNLKSKSCEDIDECSENMCAQLCVNYPGGYTCYCDGKKGFKLAQDQKSCEVVSVCLPLNLDTKYELLYLAEQFAGVVLYLKFRLPEISRFSAEFDFRTYDSEGVILYAESIDHSAWLLIALRGGKIEVQLKNEHTSKITTGGDVINNGLWNMVSVEELEHSISIKIAKEAVMDINKPGPLFKPENGLLETKVYFAGFPRKVESELIKPINPRLDGCIRSWNLMKQGASGIKKIIQEKQNKHCLVTVEKGSYYPGSGIAQFHIDYNNVSSAEGWHVNVTLNIRPSTGTGVMLALVSGNNTVPFAVSLVDSTSEKSQDILLSVENTVIYRIQALSLCSDQQSHLEFRVNRNNLELSTPLKIETISHEDLQRQLAVLDKAMKAKVATYLGGLPDVPFSATPVNAFYNGCMEVNINGVQLDLDEAISKHNDIRAHSCPSVWKKTKNS
binding to C4BP [2]: bound to C4BP with the same apparent affinity as the wild type recombinant molecule

Clotting Time [1, 4]: 94 s
B5: Q427E variant: recombinant human protein S with Gln-427 replaced by Glu (protein)
chain: B1 chain with K424E, Q427E
binding to C4BP [2]: bound to C4BP with the same apparent affinity as the wild type recombinant molecule

Clotting Time [1, 6]: 79 s
Clotting Time After Treatment (thrombin; concentration 0.60 ug/ml): 72 s
B7: R60L/R70I variant: recombinant protein S double variant in thrombin-sensitive domain (protein, UniProt P07225 42-676, looked up, variant R60L R70I)
Vitamin K-dependent protein S: B1 chain with R60L, R70I, K424E

Clotting Time [1, 3]: 90 s
Clotting Time After Treatment (thrombin; concentration 2.38 ug/ml): 75 s
B8: R60L variant: recombinant protein S single variant in thrombin-sensitive domain, arginine 60 replaced by leucine (protein, UniProt P07225 42-676, looked up, variant R60L)
Vitamin K-dependent protein S: B1 chain with R60L, K424E

Clotting Time [1, 6]: 79 s
Clotting Time After Treatment (thrombin; concentration 0.60 ug/ml): 75 s
B10: R70I variant: recombinant protein S single variant in thrombin-sensitive domain, arginine 70 replaced by isoleucine (protein, UniProt P07225 42-676, looked up, variant R70I)
Vitamin K-dependent protein S: B1 chain with R70I, K424E

The next lines start with the molecule.

B2: I425A/I426A variant: recombinant human protein S with alanine in place of isoleucine at positions 425 and 426 (protein)
chain: B1 chain with K424E, I425A, I426A
binding to C4BP [2]: failed to bind to C4BP at concentrations up to 50 ng/ml

B3: R49L/R60L variant: recombinant protein S double variant in thrombin-sensitive domain (protein, UniProt P07225 42-676, looked up, variant R49L R60L)
Vitamin K-dependent protein S: B1 chain with R49L, R60L, K424E
Clotting Time [1, 5]: 88 s
Clotting Time After Treatment (thrombin; concentration 1.12 ug/ml): 80 s

B4: R49L/R70I variant: recombinant protein S double variant in thrombin-sensitive domain (protein, UniProt P07225 42-676, looked up, variant R49L R70I)
Vitamin K-dependent protein S: B1 chain with R49L, R70I, K424E
Clotting Time [1, 5]: 86 s
Clotting Time After Treatment (thrombin; concentration 1.12 ug/ml): 80 s

B6: K432E variant: recombinant human protein S with Lys-432 replaced by Glu (protein)
chain: B1 chain with K424E, K432E
binding to C4BP [2]: failed to bind to C4BP at concentrations up to 50 ng/ml

B9: R49L variant: recombinant protein S single variant in thrombin-sensitive domain, arginine 49 replaced by leucine (protein, UniProt P07225 42-676, looked up, variant R49L)
Vitamin K-dependent protein S: B1 chain with R49L, K424E
Clotting Time [1, 6]: 80 s
Clotting Time After Treatment (thrombin; concentration 0.60 ug/ml): 72 s
